The data set is described as follows: soluble on expression in E. coli; label from the status in PepcDB or PDB records.
Regarding “MVSLTMVPIDALLSKEVNAFIVQHKHASVAELMLRMPVFTVDSRWIAAQIEGWQKASQKLPLWASTENIIYPIRLSMEQCSSERTAHYKSTLMSGERLVDLTGGFGVDSFYLSKSFNEVIYIEQQEDLAEIAAHNFSTLNQNNIVVKTADSDEYLKDIAEKIDVIFLDPARRKEMRKVYKLSDCEPNVVALQSFYFSKADVILIKTSPMLDITEATRQLTGIKEIHVVSVDNECKEVLYLLEKNYSGKATYICAHDYKKQLQLFSFTIAAEQAVTLSYSAPLAYLYEPNPSILKAGGFNSITQKYEVFKLHASSHLYTSASEVSDFPGRTFKIKETVGYSKKDIQAAVPGGKANIQTRNFPDSVEAIRKKTGLKDGGNIFIFATTLHDLSKVLLICEKI”, the “soluble on expression in E. coli” value is “not soluble”. Take “MNRIAFDAKRITSNATGLGNYSRFVVEALAAFHSEHRYYLCSPGKGNPALYSALQQREGIEWLLPEGRRMGGTFWRNFGVVPRLQKEGIDLFHGLSHELPLGIYGKGIATVVTIHDLIFIRYPHYYKPVDRLLYRLKYGHAARCADRVIAISEQTKRDVMEFFHVPADRIDVVYQGCSPAFGQATEEDESRARERYALPERYLLYVGSIETRKNLRLAVEALAHCRDRHIRLVAVGKRTPYCAEVQQCAERSGVADRLVMLHDVPFAFLPGIYRGAEVFVYPSRFEGFGIPIVEALASGVPVVAATGSCLEEAGGPSSLYTDPDDAEMMASMLDSILSDSSLREKMIADGRTYIERFSPEAVARSLMHVYDKVL”: the “soluble on expression in E. coli” value is on record as “not soluble”. For “MAHHHHHHVDDDDKMSLLDAHIPQLIASHTAFAAKAGLMRHTIGQAEQQAMSAQAFHQGESAAAFQGAHARFVAAAAKVNTLLDIAQANLGEAAGTYVAADAAAASSYTGF”, the “soluble on expression in E. coli” value is recorded as “soluble”.

Regarding “MLIKQTDYFRIYRVINSLLISQNADPASASMYFSTFGAFILQQHYKVKAVPKGGLAAYNLGGTVLLFADHREDGYVTGAGENFHCWVEADGWAIDFMAPAFSEGTDALAVPAKMFQRPLSAMAASINDLGQSGDFFYRSEPEATARRFADWHKQAMIGDMASVAANWFRKSPKQMAASLSVTDRDGKARTVPLTGEMLTGAW”, the “soluble on expression in E. coli” value was “soluble”. With “MEFFFFIDVYADRELVDYYIVTFKLDDLSSVELTGSQGKYYIRGIRDWEKFKEEAYDITLYELGDEVDRFKDIETALREAYRIAIGEAVRRGAKNIVPAIGFGNPPPEVVERVYPEELKFEKFPEDLDAFLDRIVKEVSLETTERSKDDDEIPF” the entry was “soluble”; with “MGNILIVKLSRRELSYLLSVKKYNDEGKPAKLSWISKDLNVSVASAYEEISHLESKGFLKKSDKGIFITDEGKKAIDSLLRAHRVIETFLVKIGLSPDQACNYTKQFDYSVPDEVIERIYEYLGKPEKCPHGENIPY”, “soluble”. Regarding “MGSDKIHHHHHHMNILFVAPYTPSPIRVRPYQFIRHLARRGHTITLVCVADNEAALAELRTICRRVVAVPTRTGDHVLAYIRALPTRLPLQAAHCLTPAMITAVTREIQSGDHDVIHIEHLRAAEIGLAALHQSGGGLPVVLDAVDSISLLFERTFRRSSSLSGRLRALIDLARTRHYEATYPHRFAAVVVTSPEDRWALMTLNQTLSHPGHNPLVVAPNGVDLEYFQPHTGPRHPASLVFTGKMSYHANEAAARYLVEAIMPRVWAVRPEVTVTLAGAEPGAHIRAYAHDPRITVTGAVPDLRPYLTQATIAVAPIRYGVGVQNKVLEAMATATPVITARQATVALSVQPGHDLIVADDAAEFAQAILNLLADPERRDRLGQAGRMYVERHHHWQQSVTCLESVYRAVTTPVYTH”, the “soluble on expression in E. coli” value is given as “not soluble”. With “AATITTSGTVLPTVTVAGHRAAIDEAPPLYKGGQVGSGARMGVLGNTAVMDTPFSVTSYSAQVIENNQARSVADIAAMDPSVRMSSARSNINEDLTMRGFSVSSADFALNGLFGLTPYWRAPLESIERVEVIKGPSAALFGMAPGSSVGGVVNLVPKRAGDTP” the entry was “not soluble”; with “MSTFIRGPICGTDNCPSRLWRIIDGRRTCQYGHVMEGDVEFNDDEDDLNGLGAGVITRRLNLTTNATGSFQSSQLTNSQLLQQQQRQSHKKFKKLIGHEAKLLFLKSFQFILKRQIRWLITEMRFPKEFEHVAKIIWLKILKTINDQPQEELKLQLHMTSTISILYLASTHLSLPVYTCDYIKWICTAKMPYFQASEILPKSWRIQLPNYYVSILEGSISPFNGQLYNKIALTCGMIHFKEFFNSEISCQGLLLKLVMQCALPPEFYFYTKQVIEFEETDIRNLTLWERTDERHTGRVSNHAELRVLSYFMLTINWMLSFDRDRQYPLKWILSLTESLTQRTTTSESIGRNIVKVVYPDKPTSSDYFQWSEEETLEFLKWMEKQFLPTQTKSLHNENGSMEMTIDQKIARRKLYKIFPLDREANHDGEFNDSTHQLTFIEDLQERYAKQTPFFESNKIRDSLNYQEANPPARKEAIGRLLTHIASQLLVDFAISKEQLKDCISRIKNACLHRMN”, “not soluble”. For “MGSDKIHHHHHHMVEFQSRIGKDGRLTVMEIPFDARETFQMPKGTIFVCGTINGIPYRGKLLSRGNGKQVLTIDKTLQKGLGYAGQDFPVNVAMACENQAEMVDEEKEAIPRLHSDMEAITAIAGRASVRKYMDKTVEPQKLEVILRAGLSAPSAKNKRPFHFVVVEDKAVLGAWAAGNSNAKMLSHAPCCIVVCGDGNVEGTRDFLVGGCAAATQNMLIAIHALGLGGVWCGVLRGKEWSRQVAADLYLPVKVEPLAVIALGYPTEQEKAPVPWDMKSHIHYERW”, the “soluble on expression in E. coli” value is listed as “not soluble”. With “MSLNEESFEEFSMVLEDDLVGGTFSKVGEHNKRENEDFYITKDILDLNNVSESQGLCFYSGIFDGHGGSNCARYVMNHLKTNVIAKFRQSFLITCKKKFKEKGSKLNELSVELRALYDSCIKGFDMTDKNYIELSKKYNYKDGSTACIVLIYGPDDDGSLKVLCANCGDSGAFICHNKKPIKLSLRHKPDLQEERIRILKCGGIIANINGINRIITKHKDRNNLNENNNNKSKEKTFLALSTSRSFGDISYKIPRKIVQCKPFISVYTIDFDLDSFLVLATDGILNVLSDEEIIDIIWKNIHRKPEQAAEEVVNEATRRGSTDDKTCTVIFFYWRKEGHHHHHH” the entry was “soluble”; with “IGEVDLTVRANMTYSKNEIKEYDEENSRYPYKMKYGFRVDQARGLIAEGLFKDYEEIRNRPSQGSGIMPGDIKYKDVNGDGVINGDDEVPIGATTRPNLIYGFGVSAQWKEFDINVHFQGAGKSSFFIDGFTVYPFQEKSWGNILTDVVGNYWSLGTNEDPNAKYPRLSYGGNSNNYRASTYWLRNGSYIRLKNVELGYNIPKRFVNKLHLDRVRLYLMGTNLLTFSDFKLWDPELGSSNGQQYPLSRTVTIGLTVGI”, “not soluble”. For “MKIMINPKYEYLREYVERIPKDFETIGTVIHSGRNLIKMITVDGLDINVKRYTIPPLINRIAYAFFRPSKGKRAFVYPEKLLEKGFETPCPIAYIEETKMGLIGHSYFMSIQSPYRYNFCQFGNADIKSCEDVVTAFAEFTARLHEAGILHLDYSPGNILYDKIGEEYHFSLVDINRMHFGEVDIKKGCANFARLWGQTPFFILLGKEYAHSRGMDEEECVRLVLHYRKKFWNRYRRRHQVWFQLDI”, the “soluble on expression in E. coli” value is “not soluble”.

On to “TMAGRSMQAARCPTDELSLSNCAVVSEKDYQSGQHVIVRTSPNHKYIFTLRTHPSVVPGSVAFSLPQRKWAGLSIGQEIEVALYSFDKAKQCIGTMTIEIDFLQKKNIDSNPYDTDKMAAEFIQQFNNQAFSVGQQLVFSFNDKLFGLLVKDIEAMDPSILKGEPASGKRQKIEVGLVVGNSQVAFEKAENSSLNLIGKAKTKE”, for which the “soluble on expression in E. coli” value is “soluble”. To “MFDRYESGERAILVHVFFSQDRDTDDLLEFESLVSSAGIESLQVVTGSRKAPHPKYFVGEGKAEEIAQAVKETGAFVVLFNHALTPAQERNLERLCECRVIDRTGLILDIFAQRARTHEGKLQVELAQLRHLATRLVRGWTHLERQKGGIGLRGPGETQLETDRRLLRNRISQILLRLERVEKQREQGRRSRVRADVPTVSLVGYTNAGKSTLFNKITSAGVYVADQLFATLDPTLRRIQVDDVGDTVLADTVGFIRQLPHDLVAAFKATLQETRQASLLLHVVDAADPRLDENIDAVNDVLAEIEADEIPALLVMNKIDMLDDFVPRIDRNEENLPIRVWLSAQTGDGIPLLFQALTERLSGEIAQYTLHLPPQAGRLRSRFYQLQAIEKEWIEEDGQIGLVIRMPIADWRRLCKKEQELMDYIALEHHHHHH” belongs “not soluble”. With “NKMAMIDLAKLFLASKITAIEFSERICVERRRLYGVKDLSPNILNCGEELFMAAERFEPDADRANYEIDDNGLKVEVRSILEKFKLHHHHH”, the “soluble on expression in E. coli” value was “soluble”.

Values taken from the DeepSol protein solubility set.
